Target: the molecule itself
Assay: mass photometry

B1: SH3-domain containing protein 2 (SH3P2), purified full-length protein (natural protein, Arabidopsis thaliana, UniProt Q8VWF1 1-368, looked up)
chain: MDAIRKQASRLREQVARQQQAVFKQFGGGGYGSGLADEAELNQHQKLEKLYISTRAAKHYQRDIVRGVEGYIVTGSKQVEIGTKLSEDSRKYGSENTCTNGNVLTRAALNYGRARAQMEKERGNMLKALGTQVAEPLRAMVLGAPLEDARHLAQRYDRMRQEAEAQATEVARRQAKARESQGNPDILMKLESAEAKLHDLKSNMTILGKEAASALASVEDQQQKLTLERLLSMVESERAYHQRVLQILDQLEGEMVSERQRIEAPSTPSSADSMPPPPSYEEANGVFASQMHDTSTDSMGYFLGEVLFPYHGVTDVELSLSTGEYVVVRKVTGSGWAEGECKGKAGWFPYGYIERRERVLASKVSEVF
stoichiometry N: 2

— article doi:10.1101/2023.10.09.561523 (bioRxiv, 2023)
